Test results: article PMC5677581 (2017)
βAla = NCCC(=O)O

Experiments:
[1] = target: T1, MLL1 (Homo sapiens); assay: fluorescence polarization
T1 chain: {fluorescein-βAla}-SDIMDFVLKNTP-NH2

[2] = target: T2, MLL-WT (Homo sapiens); assay: fluorescence polarization
T2 chain: {fluorescein-βAla}-DCGNILPSDIMDFVLKNTP-NH2

[3] = target: T3, MLL-WT (Homo sapiens); assay: fluorescence polarization competition
T3 chain: Ac-DCGNILPSDIMDFVLKNTP-NH2

[4] = target: T4, MLL1 (Homo sapiens); assay: fluorescence polarization competition
T4 chain: Ac-SDIMDFVLKNTP-NH2

Kd [1]: > 100 µM | Kd [2]: 1 µM | Ki [3]: 3 µM | Ki [4]: > 1000 µM
B1: KIX domain of CBP KIX (protein)
chain: not shown
